{
  "source": "paper PMC3985956",
  "about": "(Biochemistry, 2014)",
  "biological_target": "the molecule itself",
  "assay": "electron cryotomography with subvolume averaging",
  "data": [
    {"protein": "CheA, full length, purified, for reconstitution with Tsr membranes (enzyme) MSMDISDFYQTFFDEADELLADMEQHLLVLQPEAPDAEQLNAIFRAAHSIKGGAGTFGFSVLQETTHLMENLLDEARRGEMQLNTDIINLFLETKDIMQEQLDAYKQSQEPDAASFDYICQALRQLALEAKGETPSAVTRLSVVAKSEPQDEQSRSQSPRRIILSRLKAGEVDLLEEELGHLTTLTDVVKGADSLSAILPGDIAEDDITAVLCFVIEADQITFETVEVSPKISTPPVLKLAAEQAPTGRVEREKTTRSNESTSIRVAVEKVDQLINLVGELVITQSMLAQRSSELDPVNHGDLITSMGQLQRNARDLQESVMSIRMMPMEYVFSRYPRLVRDLAGKLGKQVELTLVGSSTELDKSLIERIIDPLTHLVRNSLDHGIELPEKRLAAGKNSVGNLILSAEHQGGNICIEVTDDGAGLNRERILAKAASQGLTVSENMSDDEVAMLIFAPGFSTAEQVTDVSGRGVGMDVVKRNIQKMGGHVEIQSKQGTGTTIRILLPLTLAILDGMSVRVADEVFILPLNAVMESLQPREADLHPLAGGERVLEVRGEYLPIVELWKVFNVAGAKTEATQGIVVILQSGGRRYALLVDQLIGQHQVVVKNLESNYRKVPGISAATILGDGSVALIVDVSALQAINREQRMANTAA", "values": [
      {"measurement": "binding result", "value": "binds"}
    ]}
  ]
}
